Reference: paper PMC9360328, “Tenuous Transcriptional Threshold of Human Sex Determination. I. SRY and Swyer Syndrome at the Edge of Ambiguity”

Target: SRY HMG box WT (Homo sapiens, UniProt Q05066 56-141)
Assay: FRET titration; 15 C, 25 nM DNA; FRET titration: 10 mM potassium phosphate, 10 mM Tris-HCl, 140 mM KCl, 1 mM EDTA, 1 mM DTT, pH 8.4, 15 C, 25 nM DNA; PGE: 10 nM DNA, 20 nM protein, 0.5x TBE, 4
Details: protein: recombinant; label: 5'-6-FAM (hexanyl linker) on upper strand; 5'-TAMRA (hexanyl linker) on lower strand; blunt

SRY HMG box WT, sequence (Q05066 56-141): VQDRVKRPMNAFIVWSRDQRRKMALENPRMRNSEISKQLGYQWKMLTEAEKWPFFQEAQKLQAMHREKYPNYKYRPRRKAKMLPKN

B1: 15-bp consensus SRY site, FRET-labeled (dsDNA)
DNA 1: TCGGTGATTGTTCAG
DNA 2: CTGAACAATCACCGA
Kd: 0.01 ± 0.003 µM
